According to the RNAGym collection of RNA variant scans (doi:10.1073/pnas.2313332121):

B1: TPR t1 (parent)
chain: GACCAAUCUGCCCUCAGAGCUCGAGAACAUCUUCGGAUGCAGAGGAGGCAGGCUUCGGUGGCGCGAUAGCGCCAACGUCCUCAACCUCCAAUGCAUCCCACCACAUGAUGAUGCCUGAAGAGCCUUGGUUUUUUG

Variants of: B1
Assay: polymerase ribozyme fitness, log enrichment relative to wild type (log ratio); higher = more active; in vitro selection for triplet polymerase activity
Summary of the method: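 Mutant libraries of both subunits of a heterodimeric triplet polymerase ribozyme were PCR-built, transcribed, and selected once in triplicate, with frozen incubation at −7 °C and capture of gel-excised extended constructs on streptavidin beads before RT-PCR. Illumina sequencing of input and output libraries was filtered to genotypes with ≥10 input reads and ≥1 read per output. Fitness is the logarithm of genotype enrichment over wild-type enrichment, using inverse-variance-weighted replicate averages. The logarithm is base 2.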

First: A50C G71A C79G C104A
Second: C49U G57U C79U C101A G128U
The “polymerase ribozyme fitness (log ratio)” value of the first is lower: -5.88 for the first, -4.04 for the second.

Going from C49G U59G to C49U C85A, the “polymerase ribozyme fitness (log ratio)” value falls from -0.612 to -2.47.

Going from A50C C104U G110A A118U to A50C C62A C79U, the “polymerase ribozyme fitness (log ratio)” value falls from -0.437 to -1.8.

C49G G127A and A50C U129A are within 0.2 log units of each other in “polymerase ribozyme fitness (log ratio)” value: -1.65 for the first, -1.83 for the second.

Going from C49G C72G G120C to C49G G51U U54G, the “polymerase ribozyme fitness (log ratio)” value falls from -0.782 to -2.34.

First: C49U C56U U109G
Second: C49G C53A G57A C85A C88A C115G
The “polymerase ribozyme fitness (log ratio)” value of the first is lower: -5.37 for the first, -3.29 for the second.

Going from A50G U54C G63U C88U U130G to G51A A74G A83G G120U C123G G128U, the “polymerase ribozyme fitness (log ratio)” value rises from -2.9 to -1.97.

Going from G48U G57U C76G U78A G117A to G51C G61U C114U, the “polymerase ribozyme fitness (log ratio)” value falls from -2.42 to -6.08.

First: C49U U81G U96C
Second: C49A A83C A84U
The “polymerase ribozyme fitness (log ratio)” value of the first is lower: -4.63 for the first, -0.775 for the second.

Compared with C49U C76G G113A, C49G C53A C64U is higher in “polymerase ribozyme fitness (log ratio)” value: -1.81 for the first, -0.365 for the second.

Going from A50C U87G G120C U131A to A50C C53U C56A, the “polymerase ribozyme fitness (log ratio)” value falls from 0.982 to -0.754.

Compared with C49G G57U G63A A119G U133G, C49A C64U A66C C80A G117A is lower in “polymerase ribozyme fitness (log ratio)” value: -0.878 for the first, -7.53 for the second.

Going from C49U A66G C73A C101A G128A to A50U G63A U106A G135C, the “polymerase ribozyme fitness (log ratio)” value rises from -4.92 to -2.47.

Compared with G48U G120C, A50C A66U C72U U81G C85A is lower in “polymerase ribozyme fitness (log ratio)” value: -0.358 for the first, -3.05 for the second.

Going from G51A C53G G117C G127C to A50C G61C U109A, the “polymerase ribozyme fitness (log ratio)” value rises from -7.73 to -6.96.

Compared with A50C U130A, G51C C85G is lower in “polymerase ribozyme fitness (log ratio)” value: -0.352 for the first, -4.34 for the second.

First: G48U G69A U87A
Second: A50U G58A C88U
The “polymerase ribozyme fitness (log ratio)” value of the first is lower: -6.61 for the first, -2.22 for the second.

First: C49A A75U C85G
Second: A50U C64U C70U
The “polymerase ribozyme fitness (log ratio)” value of the first is higher: -1.4 for the first, -5.2 for the second.

A50C G107A and A50C G107U are within 0.2 log units of each other in “polymerase ribozyme fitness (log ratio)” value: -6.09 for the first, -5.95 for the second.

First: A50G C88A C104U G113U U129C
Second: A50U U125G G127C
The “polymerase ribozyme fitness (log ratio)” value of the first is lower: -4.06 for the first, -3.43 for the second.

Compared with C49U G135C, A50U G61A is lower in “polymerase ribozyme fitness (log ratio)” value: -0.277 for the first, -1.36 for the second.

Going from A50U G61U to C49G G77A U112G, the “polymerase ribozyme fitness (log ratio)” value rises from -0.766 to -0.318.

First: G48U C101U
Second: G51A U131A
The “polymerase ribozyme fitness (log ratio)” value of the first is higher: -1.59 for the first, -2.2 for the second.

First: A50U U55G C98U G127A
Second: C49G G57A U109A
The “polymerase ribozyme fitness (log ratio)” value of the first is higher: -5.19 for the first, -6.29 for the second.

Going from A50U C114A to A50C G110A, the “polymerase ribozyme fitness (log ratio)” value rises from -3.11 to -2.37.

Compared with C49A G57U G60U G113A, C49A C56U G120C U131G is higher in “polymerase ribozyme fitness (log ratio)” value: -1.65 for the first, 1.43 for the second.

Going from G48U G52U C73U A90U C124G to G48U G69U, the “polymerase ribozyme fitness (log ratio)” value rises from -1.99 to -0.529.

Going from G48U G69A to A50U G113A, the “polymerase ribozyme fitness (log ratio)” value rises from -3.02 to -2.01.

Compared with A50U G113U, A50U A111G U125A is higher in “polymerase ribozyme fitness (log ratio)” value: -2.75 for the first, -2.24 for the second.

Compared with C49U C79G C104A, C49A G93U U125A U131G is higher in “polymerase ribozyme fitness (log ratio)” value: -5.16 for the first, -2.24 for the second.

Compared with A50U U54C C73A A95C, G51C U129C is lower in “polymerase ribozyme fitness (log ratio)” value: -1.37 for the first, -3.96 for the second.

Compared with A50U A74G, G48U G52U C98U G117U is lower in “polymerase ribozyme fitness (log ratio)” value: -1.27 for the first, -6.54 for the second.

First: C49U G113U G117U
Second: C49G U55G
The “polymerase ribozyme fitness (log ratio)” value of the first is lower: -5.67 for the first, -1.16 for the second.

First: C49A G63A
Second: G51A C62U G113A
The “polymerase ribozyme fitness (log ratio)” value of the first is higher: -0.725 for the first, -3.5 for the second.

First: C49G C124G
Second: C49A G63U C94U A118G
The “polymerase ribozyme fitness (log ratio)” value of the first is higher: 1.58 for the first, -1.43 for the second.

First: A50C G60U C97A
Second: G51A C53A G61A C73U U133A
The “polymerase ribozyme fitness (log ratio)” value of the first is lower: -5.38 for the first, -2.11 for the second.

First: G51C G61U C64A C79A G117A U133G
Second: G51A C79G C80G A84C C124G G128C
The “polymerase ribozyme fitness (log ratio)” value of the first is higher: -6.91 for the first, -7.76 for the second.

Going from A50C C72G G127A to C49U A50G G71U A105U, the “polymerase ribozyme fitness (log ratio)” value falls from -2.8 to -4.83.

Going from G51A C72G U96A to C49U C53U C89U, the “polymerase ribozyme fitness (log ratio)” value rises from -3.94 to -0.369.

First: G51U A66G
Second: A50C C53U C97U
The “polymerase ribozyme fitness (log ratio)” value of the first is lower: -4.49 for the first, -1.01 for the second.

Going from C49G A74C G113A to G48U C114G G117C G120C, the “polymerase ribozyme fitness (log ratio)” value falls from -2.39 to -6.82.

Compared with C49G G110A, C49G G52A C82G A84G A121U is higher in “polymerase ribozyme fitness (log ratio)” value: -1.31 for the first, 0.784 for the second.
